B1: VH:VL chains; a variant is named by its letters at X, in order (parent)
chain 1: QVQLVQSGAEVKKPGASVKVSCKASGYTFTDYXMHWVRQAPGQGLEWMGXVNPNXXXTTYNQKFEGRVTMTTDTSTSTAYMELRSLRSDDTAVYYCARXNXLDXWGQGTTVTVSS
chain 2: DIQMTQSPSSLSASVGDRVTITCSVSSSVSSIYLHWYQQKPGKAPKLLIYSTSNLASGVPSRFSGSGSGTDFTLTISSLQPEDFATYYCQVYSGYPLTFGGGTKVEIK

Variants of: B1
Test: yeast display scFab, FACS + sequencing
Method in brief: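 The non-specific binding call was based on sorted and sequenced yeast displaying a heavy-chain CDR mutant scFab library. Labelling used anti-Myc with biotinylated ovalbumin (260 μg/mL in PBSB, 3 h, room temperature) or soluble membrane proteins (130 μg/mL, 20 min on ice), and FACS collected the top 25% and bottom 10% of binders in two replicates. Positive meant present in ≥3 of 4 pooled positive samples and in no negatives, and negative meant the converse.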

Variant | non-specific binding call
DAGGASLD | no binding
VAEKGFLV | binds
AAGGDYVF | no binding
DAGGADGV | no binding
DAGEGFVA | no binding
YAGGAYLY | no binding
DAGGDAGD | no binding
YAGETFGA | binds
YAGGDSGV | no binding
VAGAGDSV | no binding
DAGGGAVA | no binding
DAGGGAVY | no binding
DAGGGAVV | no binding
VAEKGALA | no binding
FAGGGDAV | no binding
VAEKGDVF | no binding
DAERDSGV | no binding
VAGGDALD | no binding
DAGGADAV | no binding
DAGGADAY | no binding
DAGGADVY | no binding
DAGGADVA | no binding

Variant | non-specific binding call
VAGGDYLV | no binding
DAGGGDAV | no binding
FAGGGAGS | no binding
FAGGGAGA | no binding
VAEKGDGV | no binding
VAEKGDGA | no binding
AAEKDDLA | no binding
SAGEGDWV | no binding
YAGGDDGA | no binding
DAGAADGA | no binding
DAGGGAGD | no binding
YAGGDFAY | no binding
VAEKGAGD | no binding
VAGGDAAA | no binding
DAGEAAGD | no binding
VAGGDDAV | no binding
DAEKDSGA | no binding
DAGGDDVY | no binding
YAGAGAVY | no binding
VAEKGDLS | no binding
DAEKGAWA | no binding
VAGGDDGA | no binding

Variant | non-specific binding call
VAGGDDGF | no binding
DAGEAFSF | no binding
YAGEASAV | no binding
FAGGDYGS | binds
VAGGDDWV | no binding
VAGGGAAV | no binding
DAGGADWA | no binding
SAGEGSLV | no binding
DAGAADVV | no binding
DAERTDGV | no binding
VAGGAYLY | no binding
FAGGGASD | no binding
DAGEASAV | no binding
YAGAGSAD | no binding
SAGEGDGV | no binding
YAEKDFGV | no binding
VAGAGYGA | binds
DAGGGAAV | no binding
VAGGDDVA | no binding
VAGGDDVF | no binding
VAEKGSSA | no binding
YAGGDDSA | no binding

Variant | non-specific binding call
VAERSFGV | binds
SAERSAAF | no binding
VAGGDAGV | no binding
DAGGGDGA | no binding
SAGGGAGD | no binding
YAGAAAVD | binds
DAGGAAAA | no binding
DAGGAAAD | no binding
DAGGAAAV | no binding
VAEKGDAA | no binding
DAGGAAGV | no binding
DAGGAAGD | no binding
DAETAAAA | no binding
YAGEGDGA | no binding
DAGAAAGD | no binding
VAGGDAVV | no binding
VAGGDAVA | no binding
VAEKGFGA | no binding
VAGAGAGA | no binding
FAGEGAGV | no binding
DAGAADAV | no binding
SAGGGAWV | no binding

Variant | non-specific binding call
SAGEGDVF | no binding
SAGEGDVY | no binding
VAEKGSGA | no binding
VAGGGAGV | no binding
VAGAGDVV | no binding
DAGGAAVA | no binding
DAGGAAVS | no binding
VAETAAAA | no binding
SAGGDYVF | no binding
DAGGASGV | no binding
YAGGGDGA | no binding
YAGEGFGV | no binding
VAEKGDWY | no binding
FAGGGDGA | no binding
DAGGASSS | no binding
DAGGASSV | no binding
DAGGASSA | no binding
VAGGDFGV | no binding
DAGGDDGA | no binding
YAGGDDAA | no binding
YAGGDDAV | no binding

Reference: the emibetuzumab library of Makowski et al. (2022)
